According to paper PMC6237427:

Legend:
germline-reverted VRC01 = test: BLI; Octet Red, 29°C, shaking 500 r.p.m.; germline-reverted VRC01 IgG immobilised on anti-AHC biosensors (40 μg/ml in PBS); Env gp140 trimers in 2-fold dilution series (4 μM to >250 nM) in kinetic buffer (1X PBS pH7.4, 0.1% BSA, 0.02% Tween 20, 0.05% NaN3); 300 s association, 600 s dissociation; 1:1 binding model; relative apparent affinities
[1] = target: HIV-1 426c.SM (N276D) Env on Env-pseudotyped virus produced in 293T cells (HIV-1)
[2] = target: HIV-1 426c.TM1 (N276D.N460D.N463D) Env on Env-pseudotyped virus produced in 293S GnT1- cells (HIV-1)
[3] = target: HIV-1 426c.TM1 (N276D.N460D.N463D) Env on Env-pseudotyped virus produced in 293T cells (HIV-1)
[4] = target: HIV-1 426c Env on Env-pseudotyped virus produced in 293T cells (HIV-1)
[5] = target: HIV-1 426c.TM4 (S278R.G471S.N460D.N463D) Env on Env-pseudotyped virus produced in 293S GnT1- cells (HIV-1)
[6] = target: HIV-1 426c.TM4 (S278R.G471S.N460D.N463D) Env on Env-pseudotyped virus produced in 293T cells (HIV-1)
[7] = target: HIV-1 426c Env on Env-pseudotyped virus produced in 293S GnT1- cells (HIV-1)
[8] = target: HIV-1 426c.SM (N276D) Env on Env-pseudotyped virus produced in 293S GnT1- cells (HIV-1)
[9] = target: HIV-1 426c.DM (N460D.N463D) Env on Env-pseudotyped virus produced in 293T cells (HIV-1)
[10] = target: HIV-1 426c.DM (N460D.N463D) Env on Env-pseudotyped virus produced in 293S GnT1- cells (HIV-1)
[11] = target: HIV-1 TRO.11 Env on Env-pseudotyped virus produced in 293T cells (HIV-1)
[12] = target: HIV-1 TRO.11 Env on Env-pseudotyped virus produced in 293S GnT1- cells (HIV-1)

Substance: TM1 gp140 (GnT1-), uncleaved soluble 426c trimer (domain or fragment)
- Kd (germline-reverted VRC01): 42.6 nM
- koff (germline-reverted VRC01): 0.000229 s⁻¹
- kon (germline-reverted VRC01): 5370 M⁻¹ s⁻¹

Substance: germline-reverted VRC01 (antibody)
- IC50 of neutralization of the Env-pseudotyped virus in TZM-bl cells [1]: > 50 µg/mL
- IC50 of neutralization of the Env-pseudotyped virus in TZM-bl cells [2]: 1.37 µg/mL
- IC50 of neutralization of the Env-pseudotyped virus in TZM-bl cells [3]: > 50 µg/mL
- IC50 of neutralization of the Env-pseudotyped virus in TZM-bl cells [4]: > 50 µg/mL
- IC50 of neutralization of the Env-pseudotyped virus in TZM-bl cells [5]: 0.36 µg/mL
- IC50 of neutralization of the Env-pseudotyped virus in TZM-bl cells [6]: > 25 µg/mL
- IC50 of neutralization of the Env-pseudotyped virus in TZM-bl cells [7]: > 50 µg/mL
- IC50 of neutralization of the Env-pseudotyped virus in TZM-bl cells [8]: 0.99 µg/mL
- IC50 of neutralization of the Env-pseudotyped virus in TZM-bl cells [9]: > 50 µg/mL
- IC50 of neutralization of the Env-pseudotyped virus in TZM-bl cells [10]: > 50 µg/mL
- IC50 of neutralization of the Env-pseudotyped virus in TZM-bl cells [11]: > 50 µg/mL
- IC50 of neutralization of the Env-pseudotyped virus in TZM-bl cells [12]: > 50 µg/mL

Substance: germline-reverted VRC03 (antibody)
- IC50 of neutralization of the Env-pseudotyped virus in TZM-bl cells [2]: > 25 µg/mL
- IC50 of neutralization of the Env-pseudotyped virus in TZM-bl cells [5]: > 25 µg/mL
- IC50 of neutralization of the Env-pseudotyped virus in TZM-bl cells [6]: > 25 µg/mL
- IC50 of neutralization of the Env-pseudotyped virus in TZM-bl cells [7]: > 25 µg/mL
- IC50 of neutralization of the Env-pseudotyped virus in TZM-bl cells [8]: > 25 µg/mL
- IC50 of neutralization of the Env-pseudotyped virus in TZM-bl cells [10]: > 25 µg/mL

Substance: germline-reverted 12A12 (antibody)
- IC50 of neutralization of the Env-pseudotyped virus in TZM-bl cells [2]: > 25 µg/mL
- IC50 of neutralization of the Env-pseudotyped virus in TZM-bl cells [5]: 0.63 µg/mL
- IC50 of neutralization of the Env-pseudotyped virus in TZM-bl cells [6]: > 25 µg/mL
- IC50 of neutralization of the Env-pseudotyped virus in TZM-bl cells [7]: > 25 µg/mL
- IC50 of neutralization of the Env-pseudotyped virus in TZM-bl cells [8]: > 25 µg/mL
- IC50 of neutralization of the Env-pseudotyped virus in TZM-bl cells [10]: > 25 µg/mL

Substance: germline-reverted VRC07 (antibody)
- IC50 of neutralization of the Env-pseudotyped virus in TZM-bl cells [2]: 1.6 µg/mL
- IC50 of neutralization of the Env-pseudotyped virus in TZM-bl cells [5]: 1.7 µg/mL
- IC50 of neutralization of the Env-pseudotyped virus in TZM-bl cells [6]: > 25 µg/mL
- IC50 of neutralization of the Env-pseudotyped virus in TZM-bl cells [7]: > 25 µg/mL
- IC50 of neutralization of the Env-pseudotyped virus in TZM-bl cells [8]: 0.76 µg/mL
- IC50 of neutralization of the Env-pseudotyped virus in TZM-bl cells [10]: > 25 µg/mL

Substance: germline-reverted VRC20 (antibody)
- IC50 of neutralization of the Env-pseudotyped virus in TZM-bl cells [2]: 4.6 µg/mL
- IC50 of neutralization of the Env-pseudotyped virus in TZM-bl cells [5]: 0.03 µg/mL
- IC50 of neutralization of the Env-pseudotyped virus in TZM-bl cells [6]: 2.39 µg/mL
- IC50 of neutralization of the Env-pseudotyped virus in TZM-bl cells [7]: > 25 µg/mL
- IC50 of neutralization of the Env-pseudotyped virus in TZM-bl cells [8]: 10.3 µg/mL
- IC50 of neutralization of the Env-pseudotyped virus in TZM-bl cells [10]: > 25 µg/mL

Substance: germline-reverted VRC23 (antibody)
- IC50 of neutralization of the Env-pseudotyped virus in TZM-bl cells [2]: > 25 µg/mL
- IC50 of neutralization of the Env-pseudotyped virus in TZM-bl cells [5]: > 25 µg/mL
- IC50 of neutralization of the Env-pseudotyped virus in TZM-bl cells [6]: > 25 µg/mL
- IC50 of neutralization of the Env-pseudotyped virus in TZM-bl cells [7]: > 25 µg/mL
- IC50 of neutralization of the Env-pseudotyped virus in TZM-bl cells [8]: > 25 µg/mL
- IC50 of neutralization of the Env-pseudotyped virus in TZM-bl cells [10]: > 25 µg/mL

Substance: germline-reverted VRC04 (antibody)
- IC50 of neutralization of the Env-pseudotyped virus in TZM-bl cells [2]: > 25 µg/mL
- IC50 of neutralization of the Env-pseudotyped virus in TZM-bl cells [5]: > 25 µg/mL
- IC50 of neutralization of the Env-pseudotyped virus in TZM-bl cells [6]: > 25 µg/mL
- IC50 of neutralization of the Env-pseudotyped virus in TZM-bl cells [7]: > 25 µg/mL
- IC50 of neutralization of the Env-pseudotyped virus in TZM-bl cells [8]: > 25 µg/mL
- IC50 of neutralization of the Env-pseudotyped virus in TZM-bl cells [10]: > 25 µg/mL

Substance: TM1 gp140 (293T), uncleaved soluble 426c trimer (domain or fragment)
- Kd (germline-reverted VRC01): 29.4 nM
- koff (germline-reverted VRC01): 0.000148 s⁻¹
- kon (germline-reverted VRC01): 5030 M⁻¹ s⁻¹

Substance: 426c N276D gp140 (GnT1-), uncleaved soluble trimer (domain or fragment)
- Kd (germline-reverted VRC01): 178 nM
- koff (germline-reverted VRC01): 0.000739 s⁻¹
- kon (germline-reverted VRC01): 11100 M⁻¹ s⁻¹

Substance: germline-reverted 3BNC117 (antibody)
- IC50 of neutralization of the Env-pseudotyped virus in TZM-bl cells [2]: > 25 µg/mL
- IC50 of neutralization of the Env-pseudotyped virus in TZM-bl cells [5]: > 25 µg/mL
- IC50 of neutralization of the Env-pseudotyped virus in TZM-bl cells [6]: > 25 µg/mL
- IC50 of neutralization of the Env-pseudotyped virus in TZM-bl cells [7]: > 25 µg/mL
- IC50 of neutralization of the Env-pseudotyped virus in TZM-bl cells [8]: > 25 µg/mL
- IC50 of neutralization of the Env-pseudotyped virus in TZM-bl cells [10]: > 25 µg/mL

Substance: germline-reverted VRC18b (antibody)
- IC50 of neutralization of the Env-pseudotyped virus in TZM-bl cells [2]: 23 µg/mL
- IC50 of neutralization of the Env-pseudotyped virus in TZM-bl cells [5]: 17.3 µg/mL
- IC50 of neutralization of the Env-pseudotyped virus in TZM-bl cells [6]: > 25 µg/mL
- IC50 of neutralization of the Env-pseudotyped virus in TZM-bl cells [7]: > 25 µg/mL
- IC50 of neutralization of the Env-pseudotyped virus in TZM-bl cells [8]: > 25 µg/mL
- IC50 of neutralization of the Env-pseudotyped virus in TZM-bl cells [10]: > 25 µg/mL

Substance: 426c N276D gp140 (293T), uncleaved soluble trimer (domain or fragment)
- Kd (germline-reverted VRC01): 58.8 nM
- koff (germline-reverted VRC01): 0.000193 s⁻¹
- kon (germline-reverted VRC01): 9010 M⁻¹ s⁻¹
